# Target: HLA-A*02 (Homo sapiens, UniProt P04439, D140Y/D185E/D98H/E176V/E277Q/G131W/G231S/I119V/I121R/I166T/I218V/N151K/N90K/P208A/P217A/Q86G/Q94H/R138H/R169H)
# Experiment: MHC binding assay, UV-ligand exchange with beta2m ELISA, HLA-A*02
# Settings: peptide exchange yield
# Text: Candidate peptides for T cell based therapies according to the present invention were further tested for their MHC binding capacity (affinity). The individual peptide-MHC complexes were produced by UV-ligand exchange, where a UV-sensitive peptide is cleaved upon UV-irradiation, and exchanged with the peptide of interest as analyzed. Only peptide candidates that can effectively bind and stabilize the peptide-receptive MHC molecules prevent dissociation of the MHC complexes. To determine the yield of the exchange reaction, an ELISA was performed based on the detection of the light chain (β2m) of stabilized MHC complexes. The assay was performed as generally described in Rodenko et al. (Rodenko et al., 2006).
# 96 well MAXISorp plates (NUNC) were coated over night with 2 ug/ml streptavidin in PBS at room temperature, washed 4× and blocked for 1 h at 37° C. in 2% BSA containing blocking buffer. […] Peptide-MHC monomers of the UV-exchange reaction were diluted 100 fold in blocking buffer. Samples were incubated for 1 h at 37° C., washed four times, incubated with 2 ug/ml HRP conjugated anti-β2m for 1 h at 37° C., washed again and detected with TMB solution that is stopped with […]. Absorption was measured at 450 nm. Candidate peptides that show a high exchange yield (preferably higher than 50%, most preferred higher than 75%) are generally preferred for a generation and production of antibodies or fragments thereof, and/or T cell receptors or fragments thereof, as they show sufficient avidity to the MHC molecules and prevent dissociation of the MHC complexes.
row,Substance,"MHC class I binding score, Peptide exchange"
1,4 (ELAEIVFKV; listed as Homo sapiens) [compound 4],+++ (50%-75% = +++)
2,6 (FLDPAQRDL; listed as Homo sapiens) [compound 6],+++ (50%-75% = +++)
3,10 (KTLDVFNIIL; listed as Homo sapiens) [compound 10],++ (20%-49% = ++)
4,12 (GLIYEETRGV; listed as Homo sapiens) [compound 12],++ (20%-49% = ++)
5,20 (ALDGHLYAI; listed as Homo sapiens) [compound 20],+++ (50%-75% = +++)
6,23 (AQTVVVIKA; listed as Homo sapiens) [compound 23],+ (<20% = +)
7,26 (KVDGVVIQL; listed as Homo sapiens) [compound 26],+++ (50%-75% = +++)
8,29 (TLCNKTFTA; listed as Homo sapiens) [compound 29],+++ (50%-75% = +++)
9,31 (ALSDETKNNWEV; listed as Homo sapiens) [compound 31],++++ (>=75% = ++++)
10,32 (ILADEAFFSV; listed as Homo sapiens) [compound 32],+++ (50%-75% = +++)
11,36 (KLYGIEIEV; listed as Homo sapiens) [compound 36],++++ (>=75% = ++++)
12,37 (ALINDILGELVKL; listed as Homo sapiens) [compound 37],+++ (50%-75% = +++)
13,39 (ALMAVVSGL; listed as Homo sapiens) [compound 39],+++ (50%-75% = +++)
14,42 (VLSPFILTL; listed as Homo sapiens) [compound 42],+++ (50%-75% = +++)
15,44 (GLLWQIIKV; listed as Homo sapiens) [compound 44],++ (20%-49% = ++)
16,45 (VLGPTPELV; listed as Homo sapiens) [compound 45],+++ (50%-75% = +++)
17,46 (SLAKHGIVAL; listed as Homo sapiens) [compound 46],+++ (50%-75% = +++)
18,48 (TLDHKPVTV; listed as Homo sapiens) [compound 48],++ (20%-49% = ++)
19,49 (LLDESKLTL; listed as Homo sapiens) [compound 49],+++ (50%-75% = +++)
20,50 (EYALLYHTL; listed as Homo sapiens) [compound 50],++ (20%-49% = ++)
21,56 (KILDLTRVL; listed as Homo sapiens) [compound 56],++ (20%-49% = ++)
22,59 (ALTKILAEL; listed as Homo sapiens) [compound 59],+++ (50%-75% = +++)
23,61 (HLPDFVKQL; listed as Homo sapiens) [compound 61],++ (20%-49% = ++)
24,62 (SLFNQEVQI; listed as Homo sapiens) [compound 62],+++ (50%-75% = +++)
25,63 (TLSSERDFAL; listed as Homo sapiens) [compound 63],+ (<20% = +)

# Second part, the substance after the results:
row,"MHC class I binding score, Peptide exchange",Substance
1,++ (20%-49% = ++),1 (PLWGKVFYL; listed as Homo sapiens) [compound 1]
2,+++ (50%-75% = +++),3 (TLLGKQVTL; listed as Homo sapiens) [compound 3]
3,+++ (50%-75% = +++),5 (SLFGQEVYC; listed as Homo sapiens) [compound 5]
4,+++ (50%-75% = +++),8 (KLGPFLLNA; listed as Homo sapiens) [compound 8]
5,++ (20%-49% = ++),11 (GVLKVFLENV; listed as Homo sapiens) [compound 11]
6,+++ (50%-75% = +++),13 (VLRDNIQGI; listed as Homo sapiens) [compound 13]
7,++ (20%-49% = ++),14 (LLDHLSFINKI; listed as Homo sapiens) [compound 14]
8,++ (20%-49% = ++),16 (HLYNNEEQV; listed as Homo sapiens) [compound 16]
9,+++ (50%-75% = +++),18 (YVLNEEDLQKV; listed as Homo sapiens) [compound 18]
10,+++ (50%-75% = +++),19 (TLLPTVLTL; listed as Homo sapiens) [compound 19]
11,++++ (>=75% = ++++),21 (SLYHRVLLY; listed as Homo sapiens) [compound 21]
12,++++ (>=75% = ++++),22 (MLSDLTLQL; listed as Homo sapiens) [compound 22]
13,+++ (50%-75% = +++),24 (FLWNGEDSAL; listed as Homo sapiens) [compound 24]
14,++ (20%-49% = ++),25 (IQADDFRTL; listed as Homo sapiens) [compound 25]
15,+++ (50%-75% = +++),27 (KVFGDLDQV; listed as Homo sapiens) [compound 27]
16,+++ (50%-75% = +++),28 (TLYSMDLMKV; listed as Homo sapiens) [compound 28]
17,+++ (50%-75% = +++),33 (LLLPLLPPLSPSLG; listed as Homo sapiens) [compound 33]
18,++ (20%-49% = ++),35 (YVLPKLYVKL; listed as Homo sapiens) [compound 35]
19,+++ (50%-75% = +++),38 (KMQEDLVTL; listed as Homo sapiens) [compound 38]
20,+++ (50%-75% = +++),40 (SLLALPQDLQA; listed as Homo sapiens) [compound 40]
21,+++ (50%-75% = +++),41 (FVLPLVVTL; listed as Homo sapiens) [compound 41]
22,+++ (50%-75% = +++),47 (GLYQAQVNL; listed as Homo sapiens) [compound 47]
23,+++ (50%-75% = +++),51 (LLLDGDFTL; listed as Homo sapiens) [compound 51]
24,+++ (50%-75% = +++),52 (ELLSSIFFL; listed as Homo sapiens) [compound 52]
25,+++ (50%-75% = +++),53 (SLLSHVIVA; listed as Homo sapiens) [compound 53]
26,+++ (50%-75% = +++),54 (FINPKGNWLL; listed as Homo sapiens) [compound 54]
27,++ (20%-49% = ++),55 (IASAIVNEL; listed as Homo sapiens) [compound 55]
28,++ (20%-49% = ++),57 (VLISSTVRL; listed as Homo sapiens) [compound 57]
29,++ (20%-49% = ++),58 (ALDDSLTSL; listed as Homo sapiens) [compound 58]
30,++ (20%-49% = ++),60 (FLIDTSASM; listed as Homo sapiens) [compound 60]

# Reference: US10159726B2, “Peptides, combination of peptides and scaffolds for use in immunotherapeutic treatment of various cancers” (Immatics Biotechnologies GmbH, priority 2015, dated 2018)
